The results in this text go back to paper PMC6182392.

The experiment deals with Filgrastim (recombinant human granulocyte-colony stimulating factor from Escherichia coli) (human) (UniProt P09919). Description: SEC; HP-SEC, TSKgel G3000SWXL, 50 mM ammonium hydrogen carbonate pH 7.0, column 30°C; expired PDgrastim diluted to 0.25 mg/ml in 100 mM sodium acetate pH 5.0; dimer and oligomer assigned by retention relative to the monomer (Ph. Eur.). In general terms: Size exclusion chromatography separates by hydrodynamic size, large species first.

Consider “Filgrastim (recombinant human granulocyte-colony stimulating factor from Escherichia coli) (from UniProt P09919-2 31-204) (ligand)”, for which the relative peak area of dimer was found to be 3.6%; the relative peak area of oligomer was 0.1%; the stoichiometry N (in general, a count of units in the complex or per binding partner) came to 2.
